# Assay results as given in patent US20220315628A1.
# B1: A. tumefaciens ClpS2 [Pro34 Arg35 Glu36], wild-type, expressed in and purified from E. coli (protein)
# chain: MGHHHHHHENLYFQGSDSPVDLKPKPKVKPKLERPKLYKVMLLNDDYTPREFVTVVLKAVFRMSEDTGRRVMMTAHRFGSAVVVVCERDIAETKAKEATDLGKEAGFPLMFTTEPEE
# Columns and labels:
# [1] = target: W1G2 peptide (XGVECK-biotin with X = Trp); assay: SPR; KD for the Trp peptide divided by KD for the Phe peptide
# [2] = target: F1G2 peptide (XGVECK-biotin with X = Phe); assay: SPR; KD for the Phe peptide divided by KD for the Phe peptide
# [3] = target: W1G2 peptide (XGVECK-biotin with X = Trp); assay: SPR; KD for the Trp peptide divided by KD for the Trp peptide
# [4] = target: Y1G2 peptide (XGVECK-biotin with X = Tyr); assay: SPR; KD for the Tyr peptide divided by KD for the Tyr peptide
# [5] = target: F1G2 peptide (XGVECK-biotin with X = Phe); assay: SPR; KD for the Phe peptide divided by KD for the Trp peptide
# [6] = target: F1G2 peptide (XGVECK-biotin with X = Phe); assay: SPR; KD for the Phe peptide divided by KD for the Tyr peptide
# [7] = target: Y1G2 peptide (XGVECK-biotin with X = Tyr); assay: SPR; KD for the Tyr peptide divided by KD for the Trp peptide
# [8] = target: W1G2 peptide (XGVECK-biotin with X = Trp); assay: SPR; KD for the Trp peptide divided by KD for the Tyr peptide
# [9] = target: Y1G2 peptide (XGVECK-biotin with X = Tyr); assay: SPR; KD for the Tyr peptide divided by KD for the Phe peptide
# [10] = target: F1G2 peptide (XGVECK-biotin with X = Phe); assay: SPR dissociation curves; biotinylated peptide on streptavidin chip
# [11] = target: W1G2 peptide (XGVECK-biotin with X = Trp); assay: as above
# [12] = target: Y1G2 peptide (XGVECK-biotin with X = Tyr); assay: as above
# [13] = target: F1G2 peptide (XGVECK-biotin with X = Phe); assay: SPR, steady state; biotinylated peptide on streptavidin chip, protein in solution
# [14] = target: W1G2 peptide (XGVECK-biotin with X = Trp); assay: as above
# [15] = target: Y1G2 peptide (XGVECK-biotin with X = Tyr); assay: as above
binder,measurement,setting,value
B1,"Selectivity for Trp, Trp/Phe",[1],1.42
same,"Selectivity for Phe, Phe/Phe",[2],1
same,"Selectivity for Trp, Trp/Trp",[3],1
same,"Selectivity for Tyr, Tyr/Tyr",[4],1
same,"Selectivity for Phe, Phe/Trp",[5],0.71
same,"Selectivity for Phe, Phe/Tyr",[6],0.21
same,"Selectivity for Tyr, Tyr/Trp",[7],3.43
same,"Selectivity for Trp, Trp/Tyr",[8],0.29
same,"Selectivity for Tyr, Tyr/Phe",[9],4.86
same,koff,[10],0.93 s⁻¹
same,koff,[11],1.32 s⁻¹
same,koff,[12],1.16 s⁻¹
same,Kd,[13],13 µM
same,Kd,[14],18.4 µM
same,Kd,[15],63 µM
